Results: patent publication US20160257763A1

Target: FcRn
Assay: SPR pH 6.0, Ab captured by goat anti-human IgG, FcRn injected

Chain of FcRn (P55899 24-297, chain 1 of 2): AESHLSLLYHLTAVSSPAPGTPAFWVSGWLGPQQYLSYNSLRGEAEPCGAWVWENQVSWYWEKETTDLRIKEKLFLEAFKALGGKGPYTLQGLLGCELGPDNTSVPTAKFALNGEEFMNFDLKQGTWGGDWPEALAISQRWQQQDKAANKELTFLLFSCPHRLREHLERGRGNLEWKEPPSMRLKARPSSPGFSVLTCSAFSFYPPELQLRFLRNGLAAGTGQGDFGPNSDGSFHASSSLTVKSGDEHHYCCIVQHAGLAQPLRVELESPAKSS
Chain of FcRn (P61769 21-119, chain 2 of 2, further chain): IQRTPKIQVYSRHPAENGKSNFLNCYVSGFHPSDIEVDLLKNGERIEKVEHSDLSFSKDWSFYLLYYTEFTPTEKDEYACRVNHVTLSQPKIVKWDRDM

Row | Substance | Kd [µM]
1 | Y349C_T350V_F405A_Y407V / T350V_S354C_T366L_K392M_T394W (antibody) | 4.1
2 | T350V_L351Y_S400E_F405A_Y407V / T350V_T366L_N390R_K392M_T394W (antibody) | 5
3 | T350V_L351Y_F405A_Y407V / T350V_T366L_K392M_T394W (antibody) | 4.3
4 | L351Y_F405A_Y407V / T366L_K392M_T394W (antibody) | 5
5 | T350V_L351Y_F405A_Y407V / T350V_T366L_K392L_T394W (antibody) | 3.9
